Measurements taken from US7696168 (TUFTS MEDICAL CENTER, dated 2010).
The star is where a group is joined. Palmitoyl = CCCCCCCCCCCCCCCC(=O)*

Legend:
Assay in all cases: cell-based or functional assay
[1] = target: human glucagon-like peptide-1 receptor (GLP-1R) (human, UniProt P43220 24-463)
[2] = target: T1, human cholecystokinin B receptor (CCKB) (human, UniProt P32239 1-447)
T1 sequence (looked up): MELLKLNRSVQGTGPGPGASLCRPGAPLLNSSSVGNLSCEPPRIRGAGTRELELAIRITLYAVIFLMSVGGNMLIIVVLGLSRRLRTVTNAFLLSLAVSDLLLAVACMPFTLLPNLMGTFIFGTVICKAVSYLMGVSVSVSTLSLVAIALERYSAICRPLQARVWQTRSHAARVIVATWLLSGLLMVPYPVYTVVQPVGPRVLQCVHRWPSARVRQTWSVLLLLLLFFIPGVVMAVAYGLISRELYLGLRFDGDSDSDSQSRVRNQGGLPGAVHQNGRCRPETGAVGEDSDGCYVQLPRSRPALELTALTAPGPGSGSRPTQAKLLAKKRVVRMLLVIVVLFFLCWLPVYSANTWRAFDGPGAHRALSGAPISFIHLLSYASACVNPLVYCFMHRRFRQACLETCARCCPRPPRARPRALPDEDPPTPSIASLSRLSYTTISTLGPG

[3] = target: T1, human cholecystokinin B receptor (CCKB); remark: listed apart in the source
human PAR2 = target: T2, human PAR2 (human, UniProt P55085 37-397)
T2 sequence (looked up): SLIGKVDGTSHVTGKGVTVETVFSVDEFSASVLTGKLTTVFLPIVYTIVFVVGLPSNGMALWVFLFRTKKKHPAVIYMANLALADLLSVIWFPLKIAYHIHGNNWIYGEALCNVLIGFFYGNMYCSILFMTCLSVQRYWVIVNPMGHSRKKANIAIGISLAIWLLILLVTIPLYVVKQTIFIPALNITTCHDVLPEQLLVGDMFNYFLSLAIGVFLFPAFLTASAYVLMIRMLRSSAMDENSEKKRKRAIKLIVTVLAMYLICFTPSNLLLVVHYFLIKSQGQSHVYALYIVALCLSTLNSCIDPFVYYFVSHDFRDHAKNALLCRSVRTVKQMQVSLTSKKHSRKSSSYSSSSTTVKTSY

B1: G1pal-15 pepducin (peptide)
peptide: Palmitoyl-ANLMSKTDIKCRLAF-NH2
SMILES: CCCCCCCCCCCCCCCC(=O)N[C@@H](C)C(=O)N[C@@H](CC(N)=O)C(=O)N[C@@H](CC(C)C)C(=O)N[C@@H](CCSC)C(=O)N[C@@H](CO)C(=O)N[C@@H](CCCCN)C(=O)N[C@H](C(=O)N[C@@H](CC(=O)O)C(=O)N[C@H](C(=O)N[C@@H](CCCCN)C(=O)N[C@@H](CS)C(=O)N[C@@H](CCCNC(=N)N)C(=O)N[C@@H](CC(C)C)C(=O)N[C@@H](C)C(=O)N[C@@H](Cc1ccccc1)C(N)=O)[C@@H](C)CC)[C@@H](C)O
For B1, the “cAMP in Cos7 fibroblasts, fold activation at 1 µM pepducin” value [1] was 1.7 fold.

B2: Bpal-18F (Pal-SGSRPTQAKLLAKKRVVF) (peptide)
peptide: Palmitoyl-SGSRPTQAKLLAKKRVVF-NH2
SMILES: CCCCCCCCCCCCCCCC(=O)N[C@@H](CO)C(=O)NCC(=O)N[C@@H](CO)C(=O)N[C@@H](CCCNC(=N)N)C(=O)N1CCC[C@H]1C(=O)N[C@H](C(=O)N[C@@H](CCC(N)=O)C(=O)N[C@@H](C)C(=O)N[C@@H](CCCCN)C(=O)N[C@@H](CC(C)C)C(=O)N[C@@H](CC(C)C)C(=O)N[C@@H](C)C(=O)N[C@@H](CCCCN)C(=O)N[C@@H](CCCCN)C(=O)N[C@@H](CCCNC(=N)N)C(=O)N[C@H](C(=O)N[C@H](C(=O)N[C@@H](Cc1ccccc1)C(N)=O)C(C)C)C(C)C)[C@@H](C)O
For B2, the “improvement of potency against the wild-type CCKB peptide” value [2] was 15 fold, the “Agonist EC50 (activating phase, InsP formation)” value [3] was 100 nM and the “Agonist Efficacy (% of full response to 300 nM CCK-8)” value [3] was 13%. The “Agonist IC50 (inhibitory phase, InsP formation)” value [3] was 1000 nM.

B3: SLIGKV (peptide)
peptide: SLIGKV
With B3 the “InsP formation, fold-stimulation by 100 micromolar SLIGKV (P2pal-21 experiment)” value (human PAR2) was 3.1 fold.
